Laboratory results taken from patent US20260274983A1 (MODERNATX, published 2026).

T1: human BCMA (human, UniProt Q02223 1-184)
T1 construct: whole, on cells; Human is stated only for CHO-HuBCMA; also called HuBCMA; B-cell maturation antigen
T1 sequence (looked up): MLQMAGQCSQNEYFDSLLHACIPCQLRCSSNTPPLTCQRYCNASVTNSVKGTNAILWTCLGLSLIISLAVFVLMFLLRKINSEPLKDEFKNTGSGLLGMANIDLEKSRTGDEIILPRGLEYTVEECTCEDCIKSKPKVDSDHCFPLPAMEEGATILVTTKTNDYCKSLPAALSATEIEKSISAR

T2: CD38 (UniProt P28907 1-300, limits assumed)
T2 construct: whole, on cells; also called CD38 on RPMI8226 cells; CD38 on H929 cells
T2 sequence (looked up): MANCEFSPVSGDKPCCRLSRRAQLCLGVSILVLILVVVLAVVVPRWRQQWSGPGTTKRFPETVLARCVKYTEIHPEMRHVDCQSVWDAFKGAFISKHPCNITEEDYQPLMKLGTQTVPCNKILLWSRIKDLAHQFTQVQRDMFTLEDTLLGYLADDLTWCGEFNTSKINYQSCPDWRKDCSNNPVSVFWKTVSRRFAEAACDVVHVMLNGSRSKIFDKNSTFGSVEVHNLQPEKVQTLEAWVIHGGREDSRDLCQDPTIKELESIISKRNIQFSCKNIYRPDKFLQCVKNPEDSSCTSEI


Assays:
human BCMA [1] = target: T1, human BCMA; test: FACS on H929 cells, Fc formatted
CD38 [2] = target: T2, CD38; test: FACS on H929 cells, VHH-His
CD38 [3] = target: T2, CD38; test: FACS on RPMI8226 cells, VHH-His
human BCMA [4] = target: T1, human BCMA; test: FACS on CHO-HuBCMA cells, Fc formatted

Binder	EC50 (human BCMA [1])	EC50 (CD38 [2])	EC50 (CD38 [3])	also measured
BCMA-VHH13 (Fc fusion, not shown: Fc of the Fc formatted construct) QVQLVDSGGRLVQAGDSLRLSCSASGFTFGSYWMFWVRQAPGKGLEWVSAIDTSGGHVYYGDSVNGRFTISRDNAKNTLYLQMNSLKPEDTALYYCARVENTWESIYWGQGTTVTVSS	15.5 nM	–	–	–
BCMA-VHH2 (Fc fusion, not shown: Fc of the Fc formatted construct) HVQLVESGGGLVQTGGSLRLSCAASGRTLNNYVVAWFRQAPGKEREFVATMWWSGGSPWYSDNVKGRFTISRDNAKNTLYLQMNSLRPEDTAVYYCAATWVGTSEYRHWGQGTQVTVSS	–	–	–	EC50 (human BCMA [4]): 0.8 nM
BCMA-VHH4 (Fc fusion, not shown: Fc of the Fc formatted construct) QVKLEESGGGLVQTGGSLRLSCAASGRTLNNYVVAWFRQAPGKEREFVATMWWSGGSPWYSDNVKGRFTISRDNAKNTLYLQMNSLRPEDTAVYYCAATWVGTSEYQHWGQGTQVTVSS	–	–	–	EC50 (human BCMA [4]): 0.57 nM
BCMA-VHH3 (Fc fusion, not shown: Fc of the Fc formatted construct) QVQLVESGGGLVQAGGSLRLSCAASGSIFAYHVMGWYRQAPGKQRELVALITSGGSTNYTDSVKGRFTISRDNAKNTVYLQMNSLKPEDTAVYYCAIGYYSGSYYWERSGDYWGQGTQVTVSS	11 nM	–	–	–
CD38-VHH1 (VHH) VHH: QVQLVESGGGLVQPGDSLRLSCAASGFILDTYSVAWFRQAPGKEREGVSCISSRDGNTFYSDSVKGRFTISRDNAKNTVYLQMNSLKSEDTAVYTCAAGAQAHCTIFTSYFNSDYYRRYNYWGQGTQVTVSS	–	4.43 nM	< 1 nM	–
BCMA-VHH1 (Fc fusion, not shown: Fc of the Fc formatted construct) AVQLVDSGGGLVTAGDSLTLSCVASGRTLSPYTAGWFRQAPGREREFVALITARGDWTSYSDSVKGRFTISRDNAKNTIYLQMNSLEPEDTALYYCVRDLLGRDDYWGQGTQVTVSS	78 nM	–	–	–
BCMA-VHH11 (Fc fusion, not shown: Fc of the Fc formatted construct) QVQLVDSGGGLVQPGGSLRLSCAASGFTFSSYWMYWVRQAPGKGLEWVSAINTDGDSTYYADSVKGRFTVSRDVAGNMIYLQMTNLKPEDTAVYTCAAIVTRSDGHQYDYWGRGTQVTVSV	45.9 nM	–	–	–
BCMA-VHH8 (Fc fusion, not shown: Fc of the Fc formatted construct) QVQLVQSGGGLVLPGGSLRLSCAASGFTLSSYWMHWLRQAPGKGLEWVSAIKPESGITYYAESMKGRFTISRDNAKNTLYLQMNSLKSEDSALYYCVREDYDSAYVGDYWGKGTQVTVSS	–	–	–	EC50 (human BCMA [4]): 170 nM
BCMA-VHH20 (Fc fusion, not shown: Fc of the Fc formatted construct) QVQLVESGGGLVQPGGSLRLSCAASGFTFSNYAMIWVRQAPGKGLEWVSSINANSDTTAYSDSVKGRFAISRDNARNTLYLQMNSLKPEDTAVYFCVSDSYIGGLYATYVYWGQGTQVTVSS	83.4 nM	–	–	–
BCMA-VHH17 (Fc fusion, not shown: Fc of the Fc formatted construct) QVQLVESGGGLVQAGGSLRLSCAASGRTFSGYTMAWFRQAPGSEREFVAAAVGSDGSTYYVDSVKGRFTMSRDSAKNTVYLMMTSLQPVDSAVYFCVKLDSGAWSLAEWGQGTQVTVSS	1.01 nM	–	–	–
BCMA-VHH7 (Fc fusion, not shown: Fc of the Fc formatted construct) EVQLVDSGGGLVQAGGSLRLSCAASGSTFSRYAMGWIRQAPGKEREFVAAISWSGGSTYYADSVKGRFTISRDVAKNTVSLQMNSLKPEDAGVYFCFGDIIRSGERSDYEYWGQGTRVTVTS	268 nM	–	–	–
BCMA-VHH18 (Fc fusion, not shown: Fc of the Fc formatted construct) PVQLVESGGGLVQAGGSLRLSCAASGRTFSSYAMGWFRQAPGKEREFVAGVSWTGDNTGYADSVKGRFTISRDNFKSTVYLEMNSLKPEDTAVYFCAAWNWGHHEYTYWGRGTQVTVSS	–	–	–	EC50 (human BCMA [4]): 1020 nM
BCMA-VHH15 (Fc fusion, not shown: Fc of the Fc formatted construct) QVQLVESGGGLVQPGGSLRLSCAASGFTFSTYSMYWVRQAPGKGLEWVSAIDARGVNTYYADSVRGRFTVSRDNAKNTLYLQMNNLKLEDTALYYCGGWEFATWGRGTQVTVSS	–	–	–	EC50 (human BCMA [4]): 1.76 nM
BCMA-VHH16 (Fc fusion, not shown: Fc of the Fc formatted construct) QVKLEESGGGLVQAGGSLRLSCAASGHTFSNSAMGWIRQAPGKEREFVAAISLNGGNTHYAESVKGRFAISRDNAKNTMYLQMNSLKPEDTAVYYCATLGFASWGQGTQVTVSS	41.8 nM	–	–	–
BCMA-VHH9 (Fc fusion, not shown: Fc of the Fc formatted construct) QVKLEESGGGFVQPGGSLRLSCAASGFTYSSYWMHWVRQAPGKGLEWVSGISTGGDTTDTYYADSVKGRFTISRDNAKNTLYLQMNSLKPEDTAVYYCVALNLWGTDLEHDYWGRGTQVTVSS	43.4 nM	–	–	–

Further lines, with some results ahead:

EC50 (human BCMA [1])	EC50 (CD38 [2])	EC50 (CD38 [3])	Binder	also measured
–	25.7 nM	10.5 nM	CD38-VHH12 (VHH) VHH: QVQLVESGGGLVQAGGSLRLSCVASGIIFRIFSMGWYRQAPGKQRELVATITSGGNTNYAHSVKGRFTISRDDAKNTVNLQMNSLKPEDTAVYYCNVAIPSGIVDRSAWGQGTQVTVSS	–
–	2.06 nM	0.45 nM	CD38-VHH8 (VHH) VHH: QVQLVESGGGLVQAGGSLRLSCAASGSSVSMNSMAWYRQAPGKQRELVALITPGDRINYADFVKGRFTISRDNAKNTVNLQMNNLKPEDTAVYYCNIGATRPPFGAWGQGTQVTVSS	–
–	1.36 nM	0.35 nM	CD38-VHH3 (VHH) VHH: QVQLVESGGGLVQAGGSLTLSCAASRSIFEINTMTMGWYRQAPGKQRELIAASRGATTNYADSVKGRFTISRDNAKNTVYLQMNSLKPEDTAVYYCSADRYGFGYGDNDYWGQGTQVTVSS	–
–	–	71.3 nM	CD38-VHH5 (VHH) VHH: QVQLVESGGGLVQTGGSLRLSCVASGAIVSAESMGWYRQAPGNQRELVAEIISGSKSNYGESVKGRFTISRDNAENTVYLQMNSVKPEDTAVYYCKRTERIWTNNPQVYWGQGTQVTVSS	–
–	3.55 nM	1.91 nM	CD38-VHH7 (VHH) VHH: QVQLVESGGGLVHTGGSLRLSCAASGSISGLNTMGWYRQAPGKQRELVATIISGTMTRYADSVKGRFTISKDNAKNTVYLQMNSLKPEDTAVYYCTFKEITRDSRSYWGQGTQVTVSS	–
–	2.62 nM	0.51 nM	CD38-VHH9 (VHH) VHH: QVQLVESGGGLVQAGGSLRLSCVASGFIYSISTMGWYRQAPGKQRELVATITSGGNTNYADSVKGRFTISRDNAQNTVYLQMNNLKPEDTAIYYCNTAWRETIVSRVWGQGTQVTVSS	–
–	6.14 nM	1.01 nM	CD38-VHH2 (VHH) VHH: QVQLVESGGGLVQPGGSLRLSCAASGFIFSDKVMSWVRQAPGKGREWVSTITPGGTATSYTESVKGRFTISRDNAKNTLYLQMNNLKPDDTALYYCRIGGPGGRYDNWGQGTQVTVSS	–
–	101 nM	28.4 nM	CD38-VHH6 (VHH) VHH: QVQLVESGGGLVQAGGSLRLSCAASGTFSSINLMGYYRQAPGKQREFVARDYTEGTTDYADSVKGRFTISRDNTKKTVFLQMNNLKPEDTAIYYCWLMVRAGDVYWGQGTQVTVSS	–
